66 substances from the array DNA melting data of Ke et al. can be followed below.

The data set is described as follows: melting temperature; melt of duplexes. The conditions noted are these: sodium 0.0675 M; strand 1 µM.
In the case of “CGACGTGCCGAATGTGCTG+CAGCACATGTGGCACGTCG (((((((((..((((((((+))))))))..)))))))))”, the melting temperature (Tm) turned out to be 57.2 °C.

“CGACGTGCGCTATGTGCTG+CAGCACATAGTGCACGTCG ((((((((.((((((((((+)))))))))).))))))))”: the Tm was found to be 58.2 °C.

With “CGACGTGCCACATGTGCTG+CAGCACATCAGGCACGTCG (((((((((..((((((((+))))))))..)))))))))”, the Tm is 53.2 °C.

With “CGACGTGCTCTATGTGCTG+CAGCACATCCGGCACGTCG ((((((((...((((((((+))))))))...))))))))”, the melting temperature (Tm) amounted to 48.4 °C.

For “CGACGTGCGCGATGTGCTG+CAGCACATAGTGCACGTCG ((((((((.(.((((((((+)))))))).).))))))))”, the Tm amounted to 53.7 °C.

Regarding “CGACGTGCACAATGTGCTG+CAGCACATACAGCACGTCG ((((((((...((((((((+))))))))...))))))))”, the Tm came out at 45.4 °C.

Regarding “CGACGTGCATGATGTGCTG+CAGCACATTTGGCACGTCG ((((((((...((((((((+))))))))...))))))))”, the Tm is 50.3 °C.

In the case of “CGACGTGCTGTATGTGCTG+CAGCACATCCGGCACGTCG ((((((((.(.((((((((+)))))))).).))))))))”, the Tm was 52.8 °C.

As for “CGACGTGCGGGATGTGCTG+CAGCACATGGCGCACGTCG (((((((((..((((((((+))))))))..)))))))))”, the melting temperature (Tm) came out at 57.5 °C.

“CGACGTGCGTGATGTGCTG+CAGCACATACGGCACGTCG ((((((((...((((((((+))))))))...))))))))”: the melting temperature (Tm) turned out to be 51.1 °C.

“CGACGTGCGTCATGTGCTG+CAGCACATTTAGCACGTCG ((((((((...((((((((+))))))))...))))))))”: the Tm turned out to be 51.6 °C.

On to “CGACGTGCATTATGTGCTG+CAGCACATCCTGCACGTCG (((((((((..((((((((+))))))))..)))))))))”, for which the Tm came out at 49.9 °C.

For the substance “CGACGTGCTCGATGTGCTG+CAGCACATGGGGCACGTCG ((((((((.(.((((((((+)))))))).).))))))))”, the Tm is 54.5 °C.

Turning to “CGACGTGCGGGATGTGCTG+CAGCACATCAGGCACGTCG ((((((((..(((((((((+)))))))))..))))))))”, the Tm turned out to be 56.2 °C.

On to “CGACGTGCGTAATGTGCTG+CAGCACATTCTGCACGTCG ((((((((..(((((((((+)))))))))..))))))))”, for which the Tm came out at 53.4 °C.

In the case of “CGACGTGCAACATGTGCTG+CAGCACATGGTGCACGTCG (((((((((.(((((((((+))))))))).)))))))))”, the Tm turned out to be 60 °C.

For the substance “CGACGTGCTGGATGTGCTG+CAGCACATGCTGCACGTCG ((((((((.(.((((((((+)))))))).).))))))))”, the Tm was found to be 54.8 °C.

On to “CGACGTGCAACATGTGCTG+CAGCACATATGGCACGTCG ((((((((.(.((((((((+)))))))).).))))))))”, for which the midpoint of thermal melting (Tm) was 49.2 °C.

Consider “CGACGTGCATAATGTGCTG+CAGCACATTCAGCACGTCG ((((((((..(((((((((+)))))))))..))))))))”, for which the Tm came out at 52 °C.

In the case of “CGACGTGCTTAATGTGCTG+CAGCACATGTAGCACGTCG (((((((((..((((((((+))))))))..)))))))))”, the Tm stood at 53.4 °C.

Take “CGACGTGCACGATGTGCTG+CAGCACATCGGGCACGTCG ((((((((.((((((((((+)))))))))).))))))))”: the melting temperature (Tm) is 63.8 °C.

“CGACGTGCACGATGTGCTG+CAGCACATCCAGCACGTCG ((((((((..(((((((((+)))))))))..))))))))”: the Tm was found to be 50.6 °C.

As for “CGACGTGCCAGATGTGCTG+CAGCACATGCGGCACGTCG (((((((((..((((((((+))))))))..)))))))))”, the Tm was found to be 54.6 °C.

On to “CGACGTGCGCGATGTGCTG+CAGCACATTAAGCACGTCG ((((((((...((((((((+))))))))...))))))))”, for which the Tm was found to be 55 °C.

In the case of “CGACGTGCATAATGTGCTG+CAGCACATGCGGCACGTCG ((((((((...((((((((+))))))))...))))))))”, the midpoint of thermal melting (Tm) came out at 48.7 °C.

For “CGACGTGCGTTATGTGCTG+CAGCACATATGGCACGTCG ((((((((..(((((((((+)))))))))..))))))))”, the Tm came to 51.1 °C.

On to “CGACGTGCTGGATGTGCTG+CAGCACATACTGCACGTCG ((((((((.(.((((((((+)))))))).).))))))))”, for which the midpoint of thermal melting (Tm) worked out at 56.3 °C.

Turning to “CGACGTGCCAAATGTGCTG+CAGCACATAAGGCACGTCG (((((((((..((((((((+))))))))..)))))))))”, the midpoint of thermal melting (Tm) worked out at 54.4 °C.

Regarding “CGACGTGCTCGATGTGCTG+CAGCACATCGGGCACGTCG ((((((((.((((((((((+)))))))))).))))))))”, the Tm turned out to be 62.2 °C.

“CGACGTGCATTATGTGCTG+CAGCACATCCGGCACGTCG ((((((((...((((((((+))))))))...))))))))”: the Tm is 47.3 °C.

With “CGACGTGCGGGATGTGCTG+CAGCACATAAGGCACGTCG ((((((((...((((((((+))))))))...))))))))”, the Tm amounted to 51.1 °C.

Turning to “CGACGTGCAGCATGTGCTG+CAGCACATCCTGCACGTCG ((((((((((.((((((((+)))))))).))))))))))”, the Tm came to 53.9 °C.

As to “CGACGTGCAGTATGTGCTG+CAGCACATGATGCACGTCG (((((((((..((((((((+))))))))..)))))))))”, the Tm turned out to be 55 °C.

Turning to “CGACGTGCTGGATGTGCTG+CAGCACATCGCGCACGTCG ((((((((..(((((((((+)))))))))..))))))))”, the melting temperature (Tm) was 54.8 °C.

In the case of “CGACGTGCCCTATGTGCTG+CAGCACATTATGCACGTCG ((((((((...((((((((+))))))))...))))))))”, the Tm was determined as 48 °C.

Turning to “CGACGTGCGCTATGTGCTG+CAGCACATTCTGCACGTCG ((((((((...((((((((+))))))))...))))))))”, the Tm came out at 48.6 °C.

As for “CGACGTGCGAGATGTGCTG+CAGCACATGTCGCACGTCG ((((((((((.((((((((+)))))))).))))))))))”, the Tm came out at 60.6 °C.

“CGACGTGCTAGATGTGCTG+CAGCACATTAAGCACGTCG (((((((((..((((((((+))))))))..)))))))))”: the midpoint of thermal melting (Tm) was found to be 53.3 °C.

“CGACGTGCTCTATGTGCTG+CAGCACATTCTGCACGTCG ((((((((...((((((((+))))))))...))))))))”: the Tm came to 47.8 °C.

For “CGACGTGCGCCATGTGCTG+CAGCACATTCTGCACGTCG ((((((((...((((((((+))))))))...))))))))”, the Tm is 47.8 °C.

On to “CGACGTGCTGAATGTGCTG+CAGCACATTACGCACGTCG ((((((((..(((((((((+)))))))))..))))))))”, for which the melting temperature (Tm) came to 52.7 °C.

Take “CGACGTGCGATATGTGCTG+CAGCACATATGGCACGTCG ((((((((.((((((((((+)))))))))).))))))))”: the Tm was 56.5 °C.

In the case of “CGACGTGCTCGATGTGCTG+CAGCACATGATGCACGTCG ((((((((...((((((((+))))))))...))))))))”, the Tm came out at 51.9 °C.

As for “CGACGTGCTATATGTGCTG+CAGCACATGCTGCACGTCG ((((((((...((((((((+))))))))...))))))))”, the melting temperature (Tm) amounted to 48.1 °C.

For “CGACGTGCGCGATGTGCTG+CAGCACATTTTGCACGTCG ((((((((...((((((((+))))))))...))))))))”, the Tm came out at 48.9 °C.

Consider “CGACGTGCGGGATGTGCTG+CAGCACATCATGCACGTCG ((((((((..(((((((((+)))))))))..))))))))”, for which the Tm worked out at 57 °C.

Regarding “CGACGTGCTACATGTGCTG+CAGCACATGGAGCACGTCG (((((((((.(((((((((+))))))))).)))))))))”, the midpoint of thermal melting (Tm) came out at 61.7 °C.

For the substance “CGACGTGCCGTATGTGCTG+CAGCACATTAGGCACGTCG (((((((((..((((((((+))))))))..)))))))))”, the Tm came to 57.1 °C.

With “CGACGTGCAATATGTGCTG+CAGCACATCTCGCACGTCG ((((((((.(.((((((((+)))))))).).))))))))”, the Tm was 48.4 °C.

For “CGACGTGCCGGATGTGCTG+CAGCACATAGGGCACGTCG (((((((((..((((((((+))))))))..)))))))))”, the Tm was 55.9 °C.

With “CGACGTGCTCAATGTGCTG+CAGCACATCCCGCACGTCG ((((((((...((((((((+))))))))...))))))))”, the Tm is 48 °C.

With “CGACGTGCATTATGTGCTG+CAGCACATTCAGCACGTCG ((((((((...((((((((+))))))))...))))))))”, the midpoint of thermal melting (Tm) stood at 48.7 °C.

As for “CGACGTGCAGTATGTGCTG+CAGCACATAAGGCACGTCG ((((((((..(((((((((+)))))))))..))))))))”, the melting temperature (Tm) is 52.1 °C.

As to “CGACGTGCCGGATGTGCTG+CAGCACATGACGCACGTCG ((((((((...((((((((+))))))))...))))))))”, the Tm was 46.3 °C.

For the substance “CGACGTGCCAGATGTGCTG+CAGCACATACGGCACGTCG (((((((((..((((((((+))))))))..)))))))))”, the melting temperature (Tm) is 54.7 °C.

In the case of “CGACGTGCTAGATGTGCTG+CAGCACATTGCGCACGTCG ((((((((...((((((((+))))))))...))))))))”, the Tm stood at 49.2 °C.

In the case of “CGACGTGCCTGATGTGCTG+CAGCACATAGAGCACGTCG ((((((((...((((((((+))))))))...))))))))”, the melting temperature (Tm) was determined as 51.2 °C.

Turning to “CGACGTGCCTGATGTGCTG+CAGCACATCATGCACGTCG ((((((((.((((((((((+)))))))))).))))))))”, the Tm came out at 56.9 °C.

Regarding “CGACGTGCCCTATGTGCTG+CAGCACATCGGGCACGTCG ((((((((((.((((((((+)))))))).))))))))))”, the Tm amounted to 58.7 °C.

For the substance “CGACGTGCCTTATGTGCTG+CAGCACATGCTGCACGTCG ((((((((...((((((((+))))))))...))))))))”, the melting temperature (Tm) was determined as 45.1 °C.

In the case of “CGACGTGCCGTATGTGCTG+CAGCACATTGCGCACGTCG ((((((((...((((((((+))))))))...))))))))”, the Tm was found to be 49.3 °C.

In the case of “CGACGTGCACGATGTGCTG+CAGCACATGCAGCACGTCG ((((((((...((((((((+))))))))...))))))))”, the Tm came to 45.9 °C.

Turning to “CGACGTGCGTCATGTGCTG+CAGCACATGACGCACGTCG (((((((((((((((((((+)))))))))))))))))))”, the Tm was determined as 66.4 °C.

In the case of “CGACGTGCGACATGTGCTG+CAGCACATCATGCACGTCG ((((((((...((((((((+))))))))...))))))))”, the melting temperature (Tm) came to 49.1 °C.

Turning to “CGACGTGCCATATGTGCTG+CAGCACATTATGCACGTCG ((((((((...((((((((+))))))))...))))))))”, the Tm came out at 50.3 °C.

For the substance “CGACGTGCATAATGTGCTG+CAGCACATCGTGCACGTCG (((((((((..((((((((+))))))))..)))))))))”, the Tm stood at 47.6 °C.
